Experimental data taken from article PMC11480844 (2024).

B1: H2-Kb / Ed28 (parent complex)
chain 1: AQSVTQPDARVTVSEGASLQLRCKYSYFGTPYLFWYVQYPRQGLQLLLKYYPGDPVVQGVNGFEAEFSKSNSSFHLRKASVHWSDWAVYFCAVSPGSGGKLTLGAGTRLQVNL
chain 2: DSGVVQSPRHIIKEKGGRSVLTCIPISGHSNVVWYQQTLGKELKFLIQHYEKVERDKGFLPSRFSVQQFDDYHSEMNMSALELEDSAMYFCASSPRASDYTFGSGTRLLVI
chain 3: not shown
chain 4: IQKTPQIQVYSRHPPENGKPNILNCYVTQFHPPHIEIQMLKNGKKIPKVEMSDMSFSKDWSFYILAHTEFTPTETDTYACRVKHDSMAEPKTVYWDRDM
chain 5: SIINFEKL
B2: H2-Kb / F4 (parent complex)
chain 1: QQQVRQSPQSLTVWEGETAILNCSYEDSTFNYFPWYQQFPGEGPALLISIRSVSDKKEDGRFTIFFNKREKKLSLHITDSQPGDSATYFCAAMSNYNVLYFGSGTKLTVEP
chain 2: ETAVFQTPNYHVTQVGNEVSFNCKQTLGHDTMYWYKQDSKKLLKIMFSYNNKQLIVNETVPRRFSPQSSDKAHLNLRIKSVEPEDSAVYLCASSARQNSPLYFAAGTRLTVT
chain 3: not shown
chain 4: B1 chain 4
chain 5: SIINFEKL
Further: test concentration or dose not given here.

Variants of: B1
Assay: % of reporter cells activated (NFAT-GFP), raw
With chain 5 L8Y the ratio to parent was 0.902. chain 5 L8N showed a ratio to parent of 0.594. For chain 5 E6M, the ratio to parent was 0.0743. With chain 5 N4S the ratio to parent was 0.0271. Work on chain 5 N4G yielded a ratio to parent of 0.00642. Variant chain 5 N4W has a ratio to parent of 0.00775. Variant chain 5 K7E has a ratio to parent of 0.013. Work on chain 5 S1M yielded a ratio to parent of 0.908. Work on chain 5 I2T yielded a ratio to parent of 1.34. In the case of chain 5 F5I, the ratio to parent is reported as 0.388. Variant chain 5 F5Q has a ratio to parent of 0.455. In the case of chain 5 F5S, the ratio to parent is reported as 0.867.

Variants of: B2
Assay: % of reporter cells activated (NFAT-GFP), raw
chain 5 L8I gave a ratio to parent of 0.903. chain 5 L8P showed a ratio to parent of 0.48. chain 5 L8Q was tested, and the ratio to parent was 0.759. chain 5 L8F showed a ratio to parent of 0.564. Variant chain 5 L8C has a ratio to parent of 0.783. chain 5 L8E gave a ratio to parent of 0.355. In the case of chain 5 L8N, the ratio to parent is reported as 0.47. Work on chain 5 L8S yielded a ratio to parent of 0.515. Variant chain 5 L8G has a ratio to parent of 0.564. In the case of chain 5 L8K, the ratio to parent is reported as 0.352. In the case of chain 5 L8A, the ratio to parent is reported as 0.395. With chain 5 L8R the ratio to parent was 0.276. With chain 5 L8D the ratio to parent was 0.312. Work on chain 5 L8V yielded a ratio to parent of 0.457. Work on chain 5 L8W yielded a ratio to parent of 0.491. For chain 5 L8M, the ratio to parent was 0.723. chain 5 L8Y was tested, and the ratio to parent was 0.898. With chain 5 K7R the ratio to parent was 1.23. With chain 5 K7V the ratio to parent was 0.927. Variant chain 5 K7Q has a ratio to parent of 0.417. With chain 5 K7C the ratio to parent was 0.377. Variant chain 5 K7Y has a ratio to parent of 1.03. chain 5 K7H was tested, and the ratio to parent was 1.35. For chain 5 K7M, the ratio to parent was 0.651. Variant chain 5 K7E has a ratio to parent of 0.105. chain 5 K7A was tested, and the ratio to parent was 0.222. Variant chain 5 K7I has a ratio to parent of 0.771. In the case of chain 5 K7G, the ratio to parent is reported as 0.234. chain 5 K7T showed a ratio to parent of 0.628. Variant chain 5 K7S has a ratio to parent of 0.261. In the case of chain 5 K7L, the ratio to parent is reported as 0.85. Work on chain 5 K7P yielded a ratio to parent of 0.0549. With chain 5 K7D the ratio to parent was 0.101. chain 5 K7N was tested, and the ratio to parent was 0.254. With chain 5 K7F the ratio to parent was 0.726. chain 5 K7W was tested, and the ratio to parent was 0.517. Variant chain 5 S1G has a ratio to parent of 0.188. For chain 5 S1E, the ratio to parent was 0.029. For chain 5 S1W, the ratio to parent was 0.0183. With chain 5 S1A the ratio to parent was 0.0272. With chain 5 S1I the ratio to parent was 0.0174. Work on chain 5 S1L yielded a ratio to parent of 0.0263. chain 5 S1D showed a ratio to parent of 0.0189. Variant chain 5 S1H has a ratio to parent of 0.0509. For chain 5 S1P, the ratio to parent was 0.0438. chain 5 S1T was tested, and the ratio to parent was 0.0232. chain 5 S1F gave a ratio to parent of 0.0348. chain 5 S1N showed a ratio to parent of 0.0308. Work on chain 5 S1C yielded a ratio to parent of 0.0254. Variant chain 5 S1K has a ratio to parent of 0.0638. chain 5 S1Y gave a ratio to parent of 0.0768. chain 5 S1M gave a ratio to parent of 0.0268. With chain 5 S1V the ratio to parent was 0.0638. chain 5 S1Q gave a ratio to parent of 0.0344. chain 5 I2D was tested, and the ratio to parent was 0.406. With chain 5 I2H the ratio to parent was 0.0964. With chain 5 I2R the ratio to parent was 0.393. chain 5 I2W showed a ratio to parent of 0.641. Work on chain 5 I2K yielded a ratio to parent of 0.0728. For chain 5 I2G, the ratio to parent was 1.45. With chain 5 I2P the ratio to parent was 0.16. In the case of chain 5 I2S, the ratio to parent is reported as 1.05. In the case of chain 5 I2F, the ratio to parent is reported as 0.955. With chain 5 I2L the ratio to parent was 1.25. Work on chain 5 I2C yielded a ratio to parent of 2.17. With chain 5 I2T the ratio to parent was 0.773. chain 5 I2Q showed a ratio to parent of 0.181. chain 5 I2E was tested, and the ratio to parent was 0.807. chain 5 I2Y was tested, and the ratio to parent was 0.108. With chain 5 N4F the ratio to parent was 0.0339. In the case of chain 5 N4G, the ratio to parent is reported as 0.225. chain 5 N4V showed a ratio to parent of 0.0362. chain 5 N4S gave a ratio to parent of 0.0317. Work on chain 5 N4Q yielded a ratio to parent of 0.0116. With chain 5 N4R the ratio to parent was 0.0277. For chain 5 N4C, the ratio to parent was 0.0522. chain 5 N4A was tested, and the ratio to parent was 0.0308. For chain 5 N4L, the ratio to parent was 0.0594. chain 5 N4M was tested, and the ratio to parent was 0.021. Variant chain 5 N4T has a ratio to parent of 0.0402. With chain 5 N4Y the ratio to parent was 0.0299. With chain 5 N4P the ratio to parent was 0.0246. For chain 5 N4I, the ratio to parent was 0.0205. chain 5 N4K gave a ratio to parent of 0.0286. Work on chain 5 N4H yielded a ratio to parent of 0.0344. Work on chain 5 N4D yielded a ratio to parent of 0.0277. For chain 5 F5A, the ratio to parent was 0.967. chain 5 F5Y gave a ratio to parent of 0.526. chain 5 F5H gave a ratio to parent of 1.01. With chain 5 F5N the ratio to parent was 0.225. For chain 5 F5T, the ratio to parent was 1.19. With chain 5 F5L the ratio to parent was 0.554. chain 5 F5M gave a ratio to parent of 1.29. chain 5 F5I gave a ratio to parent of 1.36. chain 5 F5V showed a ratio to parent of 1.38. chain 5 F5E was tested, and the ratio to parent was 0.0661. Variant chain 5 F5R has a ratio to parent of 0.285. With chain 5 F5Q the ratio to parent was 0.517. In the case of chain 5 F5K, the ratio to parent is reported as 0.109. With chain 5 F5S the ratio to parent was 0.767. For chain 5 F5W, the ratio to parent was 0.083. With chain 5 E6F the ratio to parent was 0.033. Work on chain 5 E6R yielded a ratio to parent of 0.0897. chain 5 E6Y gave a ratio to parent of 0.0161. Work on chain 5 E6M yielded a ratio to parent of 0.0214. Variant chain 5 E6W has a ratio to parent of 0.113. chain 5 E6D was tested, and the ratio to parent was 0.987. chain 5 E6V was tested, and the ratio to parent was 0.0232. chain 5 E6I showed a ratio to parent of 0.00942. For chain 5 E6L, the ratio to parent was 0.0121. chain 5 E6S showed a ratio to parent of 0.0357. For chain 5 E6Q, the ratio to parent was 0.0246. chain 5 E6K was tested, and the ratio to parent was 0.118. With chain 5 E6T the ratio to parent was 0.0219. chain 5 E6G showed a ratio to parent of 0.0237. chain 5 E6H gave a ratio to parent of 0.0263. chain 5 E6C showed a ratio to parent of 0.537. With chain 5 E6P the ratio to parent was 0.0487. chain 5 E6A showed a ratio to parent of 0.05. With chain 5 E6N the ratio to parent was 0.0563. chain 5 I3R was tested, and the ratio to parent was 0.0634. In the case of chain 5 I3M, the ratio to parent is reported as 0.125. chain 5 I3Y showed a ratio to parent of 0.517. Variant chain 5 I3C has a ratio to parent of 0.558. chain 5 I3D showed a ratio to parent of 0.0344. In the case of chain 5 I3G, the ratio to parent is reported as 0.0625. For chain 5 I3S, the ratio to parent was 0.106. For chain 5 I3T, the ratio to parent was 0.204. For chain 5 I3L, the ratio to parent was 2.05. With chain 5 I3W the ratio to parent was 0.358. Work on chain 5 I3V yielded a ratio to parent of 1.74. Work on chain 5 I3P yielded a ratio to parent of 0.083. Variant chain 5 I3K has a ratio to parent of 0.262. chain 5 I3F was tested, and the ratio to parent was 1. chain 5 I3N gave a ratio to parent of 0.188. Variant chain 5 I3H has a ratio to parent of 0.0214. chain 5 I3E gave a ratio to parent of 0.0777. For chain 5 I3Q, the ratio to parent was 0.0638.
